From the supplement of paper PMC10065799, “High-throughput profiling of sequence recognition by tyrosine kinases and SH2 domains using bacterial peptide display” (eLife, 2023)

Columns and labels:
c-Src SH2 = assay: SH2 binding enrichment of the phosphorylated peptide, bacterial display (enrichment ratio); higher = better substrate or ligand; peptides without Tyr show the background
Grb2 SH2 = Grb2 SH2 (UniProt P62993); assay: as above
SHP2-C SH2 = assay: as above
MERTK = MERTK (UniProt Q12866); assay: phosphorylation enrichment, bacterial display (enrichment ratio); higher = better substrate or ligand; peptides without Tyr show the background
Sequence of MERTK (Q12866 whole entry, looked up): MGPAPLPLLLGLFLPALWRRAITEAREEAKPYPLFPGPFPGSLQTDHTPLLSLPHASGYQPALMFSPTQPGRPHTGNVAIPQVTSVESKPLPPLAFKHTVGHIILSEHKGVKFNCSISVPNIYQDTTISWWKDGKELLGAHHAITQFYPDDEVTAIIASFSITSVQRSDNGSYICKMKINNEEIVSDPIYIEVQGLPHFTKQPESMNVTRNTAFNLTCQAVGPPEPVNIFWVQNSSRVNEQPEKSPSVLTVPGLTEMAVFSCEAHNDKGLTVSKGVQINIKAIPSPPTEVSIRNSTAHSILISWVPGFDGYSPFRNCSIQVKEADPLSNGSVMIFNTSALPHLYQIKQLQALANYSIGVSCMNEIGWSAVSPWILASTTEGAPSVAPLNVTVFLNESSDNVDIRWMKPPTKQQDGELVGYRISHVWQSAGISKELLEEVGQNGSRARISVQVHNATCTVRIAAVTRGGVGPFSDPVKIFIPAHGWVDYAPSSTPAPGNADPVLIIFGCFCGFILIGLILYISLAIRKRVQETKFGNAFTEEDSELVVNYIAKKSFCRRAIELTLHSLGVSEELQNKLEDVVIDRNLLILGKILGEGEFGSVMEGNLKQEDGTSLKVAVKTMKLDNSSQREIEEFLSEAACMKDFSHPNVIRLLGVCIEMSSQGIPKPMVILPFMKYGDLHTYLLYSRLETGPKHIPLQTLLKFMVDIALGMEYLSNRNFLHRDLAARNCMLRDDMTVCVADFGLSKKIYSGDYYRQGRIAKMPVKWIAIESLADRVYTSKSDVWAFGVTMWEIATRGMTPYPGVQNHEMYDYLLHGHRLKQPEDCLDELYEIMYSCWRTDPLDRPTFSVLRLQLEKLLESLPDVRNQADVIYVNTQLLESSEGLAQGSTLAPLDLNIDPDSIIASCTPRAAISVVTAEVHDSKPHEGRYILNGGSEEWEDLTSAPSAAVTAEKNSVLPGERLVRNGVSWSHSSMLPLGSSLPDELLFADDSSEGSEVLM

EPHB2 = EPHB2 (UniProt P29323); assay: as above
Sequence of EPHB2 (P29323 whole entry, looked up): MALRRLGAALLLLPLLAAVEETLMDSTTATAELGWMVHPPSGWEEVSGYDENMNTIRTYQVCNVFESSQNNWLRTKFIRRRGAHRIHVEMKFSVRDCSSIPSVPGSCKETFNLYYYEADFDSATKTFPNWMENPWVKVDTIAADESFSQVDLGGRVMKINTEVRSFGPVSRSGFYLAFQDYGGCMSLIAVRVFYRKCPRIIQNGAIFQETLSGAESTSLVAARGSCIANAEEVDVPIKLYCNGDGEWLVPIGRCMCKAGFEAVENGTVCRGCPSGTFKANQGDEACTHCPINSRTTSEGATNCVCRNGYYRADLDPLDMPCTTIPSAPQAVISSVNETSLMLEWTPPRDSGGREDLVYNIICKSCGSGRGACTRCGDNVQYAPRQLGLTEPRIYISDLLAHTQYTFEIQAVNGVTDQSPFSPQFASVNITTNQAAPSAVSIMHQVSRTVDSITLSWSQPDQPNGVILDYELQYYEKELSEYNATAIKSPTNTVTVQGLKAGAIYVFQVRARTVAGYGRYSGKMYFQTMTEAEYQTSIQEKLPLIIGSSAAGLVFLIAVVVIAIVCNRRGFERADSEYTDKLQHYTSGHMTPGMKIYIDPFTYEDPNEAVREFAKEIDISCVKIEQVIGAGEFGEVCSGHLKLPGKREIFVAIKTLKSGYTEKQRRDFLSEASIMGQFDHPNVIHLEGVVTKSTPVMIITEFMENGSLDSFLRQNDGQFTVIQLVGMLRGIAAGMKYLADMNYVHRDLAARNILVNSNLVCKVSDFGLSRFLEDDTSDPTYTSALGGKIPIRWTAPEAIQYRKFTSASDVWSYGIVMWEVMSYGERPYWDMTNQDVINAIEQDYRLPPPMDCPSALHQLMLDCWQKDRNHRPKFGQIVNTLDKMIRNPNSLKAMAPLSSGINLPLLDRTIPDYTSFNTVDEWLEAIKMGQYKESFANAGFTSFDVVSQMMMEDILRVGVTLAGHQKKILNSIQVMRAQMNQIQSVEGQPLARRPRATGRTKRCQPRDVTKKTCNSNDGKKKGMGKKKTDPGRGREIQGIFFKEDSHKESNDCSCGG

FGFR3 = FGFR3 (UniProt P22607); assay: as above
AncSZ = assay: as above
Fyn = Fyn (UniProt P06241); assay: as above
Sequence of Fyn (P06241 whole entry, looked up): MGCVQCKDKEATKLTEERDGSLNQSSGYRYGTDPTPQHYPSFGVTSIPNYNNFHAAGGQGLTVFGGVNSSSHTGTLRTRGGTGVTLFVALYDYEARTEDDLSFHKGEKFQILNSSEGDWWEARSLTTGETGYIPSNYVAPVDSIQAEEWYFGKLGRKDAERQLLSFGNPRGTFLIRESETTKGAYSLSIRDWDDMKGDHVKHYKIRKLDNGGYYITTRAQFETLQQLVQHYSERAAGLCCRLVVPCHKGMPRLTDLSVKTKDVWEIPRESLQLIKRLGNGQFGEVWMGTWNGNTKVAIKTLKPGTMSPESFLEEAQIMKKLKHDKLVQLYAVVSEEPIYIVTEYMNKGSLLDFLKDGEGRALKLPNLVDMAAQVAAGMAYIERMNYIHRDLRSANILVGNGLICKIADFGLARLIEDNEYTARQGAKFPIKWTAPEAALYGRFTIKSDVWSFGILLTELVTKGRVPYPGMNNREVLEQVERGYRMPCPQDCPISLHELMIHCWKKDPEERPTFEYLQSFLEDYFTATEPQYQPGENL

Hck = Hck (UniProt P08631); assay: as above
Sequence of Hck (P08631 whole entry, looked up): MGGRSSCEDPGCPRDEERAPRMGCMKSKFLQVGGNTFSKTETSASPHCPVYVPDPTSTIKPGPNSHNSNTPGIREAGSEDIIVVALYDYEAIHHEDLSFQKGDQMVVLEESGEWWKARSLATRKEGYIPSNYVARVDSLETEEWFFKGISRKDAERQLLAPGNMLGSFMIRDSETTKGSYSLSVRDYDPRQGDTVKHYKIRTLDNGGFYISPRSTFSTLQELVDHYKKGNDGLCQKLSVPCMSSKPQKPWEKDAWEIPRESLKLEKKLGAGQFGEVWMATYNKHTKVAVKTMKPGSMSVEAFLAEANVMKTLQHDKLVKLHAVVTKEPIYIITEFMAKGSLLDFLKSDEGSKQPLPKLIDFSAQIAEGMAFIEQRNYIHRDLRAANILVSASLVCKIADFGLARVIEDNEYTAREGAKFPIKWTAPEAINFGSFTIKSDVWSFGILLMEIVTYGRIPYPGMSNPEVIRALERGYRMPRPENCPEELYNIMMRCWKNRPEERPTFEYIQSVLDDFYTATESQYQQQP

Fes = Fes (UniProt P07332); assay: as above
EPHB1 = EPHB1 (UniProt P54762); assay: as above
Sequence of EPHB1 (P54762 whole entry, looked up): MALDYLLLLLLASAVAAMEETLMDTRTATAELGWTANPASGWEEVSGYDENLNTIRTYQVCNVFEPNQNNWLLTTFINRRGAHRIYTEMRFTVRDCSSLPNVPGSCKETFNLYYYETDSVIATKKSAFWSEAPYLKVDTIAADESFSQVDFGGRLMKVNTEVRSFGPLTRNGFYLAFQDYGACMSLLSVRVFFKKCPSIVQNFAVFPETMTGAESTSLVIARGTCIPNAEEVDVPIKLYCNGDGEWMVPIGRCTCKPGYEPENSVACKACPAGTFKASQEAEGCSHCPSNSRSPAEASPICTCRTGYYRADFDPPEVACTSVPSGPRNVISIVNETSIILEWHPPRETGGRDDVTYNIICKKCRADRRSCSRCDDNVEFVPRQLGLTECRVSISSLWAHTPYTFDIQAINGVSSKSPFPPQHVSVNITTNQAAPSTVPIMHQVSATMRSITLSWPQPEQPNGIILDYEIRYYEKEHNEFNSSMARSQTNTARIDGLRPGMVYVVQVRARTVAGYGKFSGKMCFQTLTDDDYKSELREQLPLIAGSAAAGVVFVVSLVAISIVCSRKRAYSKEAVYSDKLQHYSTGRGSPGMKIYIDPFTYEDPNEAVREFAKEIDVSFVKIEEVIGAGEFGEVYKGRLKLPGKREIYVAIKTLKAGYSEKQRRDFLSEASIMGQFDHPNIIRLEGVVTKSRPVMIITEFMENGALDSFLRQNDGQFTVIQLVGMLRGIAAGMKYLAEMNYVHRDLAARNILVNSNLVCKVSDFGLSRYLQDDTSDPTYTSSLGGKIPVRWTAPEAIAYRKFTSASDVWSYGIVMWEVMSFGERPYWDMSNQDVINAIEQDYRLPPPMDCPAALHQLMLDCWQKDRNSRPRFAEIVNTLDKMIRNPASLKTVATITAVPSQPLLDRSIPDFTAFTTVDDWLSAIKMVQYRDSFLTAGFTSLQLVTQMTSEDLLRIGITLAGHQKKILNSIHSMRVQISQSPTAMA

c-Src = assay: as above
c-Abl (mouse) = assay: as above
Jak2 = Jak2 (UniProt O60674); assay: as above
Fer (mouse) = assay: as above
FGFR1 = FGFR1 (UniProt P11362); assay: as above
Sequence of FGFR1 (P11362 whole entry, looked up, the tested form may be a part): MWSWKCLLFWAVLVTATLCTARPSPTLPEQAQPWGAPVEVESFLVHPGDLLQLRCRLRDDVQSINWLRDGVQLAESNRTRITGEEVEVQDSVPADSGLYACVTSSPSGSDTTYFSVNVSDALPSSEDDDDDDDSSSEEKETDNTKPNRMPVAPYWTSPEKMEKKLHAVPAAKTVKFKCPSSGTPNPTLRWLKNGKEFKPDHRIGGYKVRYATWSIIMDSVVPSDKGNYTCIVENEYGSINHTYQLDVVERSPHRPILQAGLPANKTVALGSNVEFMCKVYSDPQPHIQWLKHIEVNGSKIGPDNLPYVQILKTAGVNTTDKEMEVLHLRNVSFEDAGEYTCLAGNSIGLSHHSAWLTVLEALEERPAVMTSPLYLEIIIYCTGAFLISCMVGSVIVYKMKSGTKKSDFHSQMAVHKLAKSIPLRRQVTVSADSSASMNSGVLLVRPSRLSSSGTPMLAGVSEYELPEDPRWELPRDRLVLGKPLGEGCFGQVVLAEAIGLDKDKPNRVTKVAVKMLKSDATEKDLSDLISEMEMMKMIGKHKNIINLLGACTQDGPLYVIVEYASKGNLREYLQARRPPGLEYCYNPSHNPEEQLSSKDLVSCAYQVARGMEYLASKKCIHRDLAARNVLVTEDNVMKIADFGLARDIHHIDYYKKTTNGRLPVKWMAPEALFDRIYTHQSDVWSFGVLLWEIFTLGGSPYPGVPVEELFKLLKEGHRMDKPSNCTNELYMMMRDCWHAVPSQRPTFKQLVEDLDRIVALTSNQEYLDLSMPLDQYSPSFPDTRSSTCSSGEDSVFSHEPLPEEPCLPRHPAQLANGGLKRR
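Throughout, for SH2 binding enrichment of the phosphorylated peptide, bacterial display: peptide library displayed on the E. coli surface as eCPX fusions, selected cells deep-sequenced, score is each peptide's frequency after selection divided by its frequency in the input.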
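Throughout, for phosphorylation enrichment, bacterial display: 11-residue human phosphosite peptides and single-mutation variants displayed on the E. coli surface, counted by deep sequencing, each peptide's frequency after selection divided by its frequency in the unselected input library; frequency after pTyr selection over input frequency; kinase dosed for 20-30% of maximal phosphorylation in three min.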

| Sequence | SH2 binding enrichment (c-Src SH2) | SH2 binding enrichment (Grb2 SH2) | SH2 binding enrichment (SHP2-C SH2) | phosphorylation enrichment (MERTK) | phosphorylation enrichment (EPHB2) | phosphorylation enrichment (FGFR3) | phosphorylation enrichment (AncSZ) | phosphorylation enrichment (Fyn) | phosphorylation enrichment (Hck) | phosphorylation enrichment (Fes) | phosphorylation enrichment (EPHB1) | phosphorylation enrichment (c-Src) | phosphorylation enrichment (c-Abl (mouse)) | phosphorylation enrichment (Jak2) | phosphorylation enrichment (Fer (mouse)) | phosphorylation enrichment (FGFR1) |
| --- | --- | --- | --- | --- | --- | --- | --- | --- | --- | --- | --- | --- | --- | --- | --- | --- |
| AFGEVYEGQES [ALK_Y1131_V1135E] | 0.557 | 0.842 | 0.677 | 0.438 | 0.622 | 0.645 | 1.32 | 0.598 | 0.629 | 1.05 | 0.526 | 0.75 | 0.842 | 1.14 | 0.478 | 0.485 |
| TKFRNYLIPNG [CYP2C8_Y379_K383N] | 0.462 | 0.946 | 0.724 | 0.495 | 0.736 | 0.502 | 0.68 | 0.553 | 0.432 | 0.679 | 0.527 | 0.484 | 0.631 | 0.536 | 0.394 | 0.458 |
| DKANRYFSPNV [PTEN_Y336_F341V] | 0.644 | 0.808 | 0.839 | 0.354 | 0.394 | 0.504 | 0.446 | 0.378 | 0.376 | 0.544 | 0.297 | 0.388 | 0.486 | 0.412 | 0.363 | 0.355 |
| LWQTIYNLEAE [TNNT2_Y251_S249T] | 0.823 | 1.03 | 0.773 | 0.735 | 0.894 | 1.13 | 1.56 | 10.9 | 5.88 | 2.22 | 1.3 | 8.82 | 1.21 | 1.73 | 0.855 | 1.15 |
| PFTRNYFVWAV [CYBA_Y87_R90W_YF] | 0.534 | 0.939 | 0.771 | 9.74 | 3.07 | 10.9 | 4.23 | 1.56 | 1.92 | 4.28 | 3.63 | 1.27 | 4.62 | 7.13 | 1.97 | 13.5 |
| ILGRFYERGSI [PAX5_Y73_T75R_YF] | 0.575 | 0.71 | 1.16 | 0.395 | 0.476 | 0.517 | 0.651 | 0.483 | 0.486 | 0.674 | 0.392 | 0.451 | 0.532 | 0.662 | 0.398 | 0.413 |
| EFNLMYHGTKE [IRF6_Y97_D98H] | 0.656 | 0.827 | 0.784 | 0.442 | 0.645 | 0.579 | 0.923 | 0.463 | 0.455 | 0.94 | 0.631 | 0.545 | 0.593 | 0.744 | 0.451 | 0.489 |
| ATHSGYRLNDF [CLDN14_Y233_YF] | 0.421 | 1.04 | 0.542 | 0.42 | 0.514 | 0.538 | 0.587 | 0.419 | 0.391 | 0.601 | 0.472 | 0.453 | 0.906 | 0.558 | 0.361 | 0.322 |
| EFISEYCGEII [EZH2_Y641] | 0.617 | 0.947 | 0.809 | 0.616 | 0.716 | 1.05 | 1.61 | 0.692 | 0.664 | 1.33 | 0.901 | 0.576 | 0.905 | 1.05 | 0.678 | 0.604 |
